From US20250066499A1 (SUNSHINE GUOJIAN PHARMACEUTICAL SHANGHAI, published 2025)

How the values were obtained:
[1] = target: T1, CD73-ND-Y135A (human, UniProt P21589 27-317); test: ELISA; decline multiple of Top against CD73-ND
T1 construct: Alanine mutant of CD73-ND
T1 sequence: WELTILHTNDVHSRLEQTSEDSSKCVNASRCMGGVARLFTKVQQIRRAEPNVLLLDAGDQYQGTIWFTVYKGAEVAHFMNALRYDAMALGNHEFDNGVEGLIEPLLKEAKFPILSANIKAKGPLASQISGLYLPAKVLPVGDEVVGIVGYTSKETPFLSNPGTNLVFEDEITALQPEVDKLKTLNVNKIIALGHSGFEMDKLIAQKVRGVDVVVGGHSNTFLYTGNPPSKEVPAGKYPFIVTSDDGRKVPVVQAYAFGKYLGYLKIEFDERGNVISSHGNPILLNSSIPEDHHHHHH
Method: (§1) The ELISA plates were coated with SA protein diluted to 1.5 μg/mL in coating buffer (50 mM carbonate coating buffer, pH 9.6) and incubated overnight at 4° C. The supernatant was discarded, and the plates were washed three times with PBST. Then, 5% skimmed milk powder prepared with PBS was added for blocking and the plates were incubated for 2 h at 37° C. After washing the plates once with PBST, CD73-biotin protein (prepared by biotinylating CD73-His protein according to the EZ-Link NHS-Biotin Reagent instructions) was diluted to 0.5 μg/mL and added at 100 μL/well for incubation at room temperature for 1 h. The plates were washed three times with PBST, and the prepared murine-derived monoclonal antibodies against human CD73 were serially diluted with 1% BSA buffer prepared with PBST and added to the ELISA plates at 100 μl/well. The plates were incubated at 37° C. for 1 h. After washing the plates three times with PBST, HRP-labeled goat anti-mouse IgG secondary antibody was added and the plates were incubated for 30 min at 37° C. After washing the plates three times with PBST, the residual droplets were patted dry on absorbent paper as much as possible. Then, 100 μl of TMB color developing solution was added to each well, and the plates were incubated in the dark at room temperature for 5 min for color development. Subsequently, 50 μl of 2M H₂SO₄ stop solution was added to each well to terminate the substrate reaction. The OD values were read at 450 nm using a multimode microplate reader to analyze the binding ability of the tested antibodies to the target antigen human CD73-His.
(§2) Referring to the experimental method in Example 3, the affinity of 48A11-HuV33 for various mutant proteins of CD73-ND was determined. The SA protein was diluted to 1 μg/mL for coating the ELISA plates, and the biotinylated CD73 protein (CD73-biotin) was used at a concentration of 0.1 μg/mL.

[2] = target: T2, CD73-ND-V137A (human, UniProt P21589 27-317); test: ELISA; decline multiple of Top against CD73-ND
T2 construct: Alanine mutant of CD73-ND
T2 sequence: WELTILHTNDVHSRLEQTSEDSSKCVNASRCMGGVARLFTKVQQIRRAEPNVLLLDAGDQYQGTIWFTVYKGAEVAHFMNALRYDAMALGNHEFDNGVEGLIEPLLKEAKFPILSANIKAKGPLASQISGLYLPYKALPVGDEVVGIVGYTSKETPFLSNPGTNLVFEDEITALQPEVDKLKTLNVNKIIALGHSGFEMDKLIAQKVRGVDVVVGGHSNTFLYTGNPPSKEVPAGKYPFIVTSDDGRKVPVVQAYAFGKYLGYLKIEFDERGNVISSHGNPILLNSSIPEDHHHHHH
Method: as §1, §2

B1: 48A11-HuV33 (antibody, human IgG4, V domains shown)
VH: QVQLVQSGAEVKKPGASVKVSCKASGYTFTSYWMHWVRQAPGQGLEWIGEINPSIGRTNYNEKFKSRVTLTRDTSTSTAYMELSSLRSEDTAVYYCARRVYGTMDYWGQGTLVTVSS
VL: DIQMTQSPSSLSASVGDRVTITCKASQDINSYLSWFQQKPGKSPKLLIYRANIWVDGVPSRFSGSGSGQDYTFTISSLQPEDIATYYCLQYDELYTFGQGTKVEIK
notes: Humanized
- Ratio(Top) [1]: 1.1 fold
- Ratio(Top) [2]: 1.3 fold
